In article PMC5672800 (Journal of medicinal chemistry, 2017):
Non-standard residues stand in square brackets, D forms with d. dPhe(4-I) = N[C@H](Cc1ccc(I)cc1)C(=O)O; d2Nal = N[C@H](Cc1ccc2ccccc2c1)C(=O)O; Bta = N[C@@H](Cc1csc2ccccc12)C(=O)O; Tic = O=C(O)[C@@H]1Cc2ccccc2CN1

Legend:
[1] = target: T1, mouse melanocortin-4 receptor (mouse, UniProt P56450 1-332); assay: radioligand binding
[2] = target: mouse melanocortin-1 receptor (mouse, UniProt Q01727 1-315); assay: cell-based or functional assay
Sequence of mouse melanocortin-1 receptor (Q01727 whole entry): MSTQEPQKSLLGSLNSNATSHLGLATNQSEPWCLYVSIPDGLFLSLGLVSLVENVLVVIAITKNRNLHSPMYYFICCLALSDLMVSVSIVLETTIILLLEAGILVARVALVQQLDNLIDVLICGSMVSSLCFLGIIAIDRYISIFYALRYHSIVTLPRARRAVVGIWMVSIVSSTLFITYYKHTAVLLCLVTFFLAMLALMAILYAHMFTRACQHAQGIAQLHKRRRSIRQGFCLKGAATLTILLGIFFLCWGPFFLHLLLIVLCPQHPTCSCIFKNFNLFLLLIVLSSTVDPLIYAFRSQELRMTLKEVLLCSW

[3] = target: mouse melanocortin-5 receptor (mouse, UniProt P41149 1-325); assay: cell-based or functional assay
Sequence of mouse melanocortin-5 receptor (P41149 whole entry): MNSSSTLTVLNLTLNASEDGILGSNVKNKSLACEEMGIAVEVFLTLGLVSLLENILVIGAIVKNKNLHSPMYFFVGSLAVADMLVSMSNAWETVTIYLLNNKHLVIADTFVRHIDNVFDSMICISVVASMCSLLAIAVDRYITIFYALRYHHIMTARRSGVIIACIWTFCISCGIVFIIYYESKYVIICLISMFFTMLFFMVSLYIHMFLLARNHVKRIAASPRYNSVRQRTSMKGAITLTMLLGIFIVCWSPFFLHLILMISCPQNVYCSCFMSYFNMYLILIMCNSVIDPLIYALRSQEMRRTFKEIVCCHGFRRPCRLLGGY

[4] = target: T2, mouse melanocortin-3 receptor (mouse, UniProt P33033 1-323); assay: cell-based or functional assay
T2 sequence (P33033 whole entry): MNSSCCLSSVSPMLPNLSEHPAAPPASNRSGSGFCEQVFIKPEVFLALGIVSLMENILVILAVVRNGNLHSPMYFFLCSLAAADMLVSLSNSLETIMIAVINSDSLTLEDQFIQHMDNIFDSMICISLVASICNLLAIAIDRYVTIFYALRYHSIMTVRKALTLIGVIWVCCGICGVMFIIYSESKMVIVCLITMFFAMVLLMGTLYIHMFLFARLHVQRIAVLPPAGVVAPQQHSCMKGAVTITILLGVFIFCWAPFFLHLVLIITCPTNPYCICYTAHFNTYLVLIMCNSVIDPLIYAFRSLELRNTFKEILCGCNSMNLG

[5] = target: T1, mouse melanocortin-4 receptor; assay: cell-based or functional assay
[6] = target: T2, mouse melanocortin-3 receptor; assay: radioligand binding

T1 sequence (P56450 whole entry): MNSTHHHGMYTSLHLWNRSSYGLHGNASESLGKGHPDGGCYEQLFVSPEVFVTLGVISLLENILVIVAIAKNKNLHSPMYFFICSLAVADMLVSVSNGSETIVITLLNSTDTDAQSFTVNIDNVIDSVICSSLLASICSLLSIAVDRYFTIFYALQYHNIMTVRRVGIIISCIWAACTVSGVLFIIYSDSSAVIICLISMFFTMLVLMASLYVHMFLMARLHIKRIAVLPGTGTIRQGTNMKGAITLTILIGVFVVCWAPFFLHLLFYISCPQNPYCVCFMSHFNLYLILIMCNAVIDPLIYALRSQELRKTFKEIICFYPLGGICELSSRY

Binder	IC50 [1] [nM]	cAMP AlphaScreen, HEK293 cells stably expressing the receptor: agonist EC50 [2] [nM]	cAMP AlphaScreen, HEK293 cells stably expressing the receptor: agonist EC50 [3] [nM]	cAMP AlphaScreen, HEK293 cells stably expressing the receptor: agonist EC50 [4] [nM]	cAMP AlphaScreen, Schild analysis against NDP-MSH (blocks m5+m3): antagonist pA2 [5]	cAMP AlphaScreen, HEK293 cells stably expressing the receptor: agonist EC50 [5] [nM]	IC50 [6] [nM]
Ac-HR[dPhe(4-I)][Bta]-NH2 [compound 11]	275	70	270	460	6.4 -Log(Ki)		
Ac-FR[dPhe(4-I)][Bta]-NH2 [compound 15]	850	330	1300	930	5.7 -Log(Ki)	> 100000	
HRFX (HELM PEPTIDE1{[ac].H.R.[O=C([C@@H](Cc1ccc(I)cc1)N[*:1])[*:2]].[Tic].[am]}$$$$V2.0; SMILES CC(=O)N[C@@H](Cc1c[nH]cn1)C(=O)N[C@@H](CCCNC(=N)N)C(=O)N[C@H](Cc1ccc(I)cc1)C(=O)N1Cc2ccccc2C[C@H]1C(N)=O) [Ac-His-Arg-(pI)DPhe-Tic-NH2]	83	0.71	17	40	7 -Log(Ki)	> 100000	
Ac-H[dF]RW-NH2 [Ac-His-DPhe-Arg-Trp-NH2]			3				
Ac-RR[dPhe(4-I)][Bta]-NH2 [compound 10]	93	56	210	160	6.6 -Log(Ki)		
RRFX (HELM PEPTIDE1{[ac].R.R.[O=C([C@@H](Cc1ccc(I)cc1)N[*:1])[*:2]].[Tic].[am]}$$$$V2.0; SMILES CC(=O)N[C@@H](CCCNC(=N)N)C(=O)N[C@@H](CCCNC(=N)N)C(=O)N[C@H](Cc1ccc(I)cc1)C(=O)N1Cc2ccccc2C[C@H]1C(N)=O) [Ac-Arg-Arg-(pI)DPhe-Tic-NH2]	13	0.51	8.8		7.8 -Log(Ki)	> 100000	
RRFF (HELM PEPTIDE1{[ac].R.R.[O=C([C@@H](Cc1ccc(I)cc1)N[*:1])[*:2]].F.[am]}$$$$V2.0; SMILES CC(=O)N[C@@H](CCCNC(=N)N)C(=O)N[C@@H](CCCNC(=N)N)C(=O)N[C@H](Cc1ccc(I)cc1)C(=O)N[C@@H](Cc1ccccc1)C(N)=O) [compound 25]		55	340				
Ac-FR[dPhe(4-I)][Tic]-NH2 [compound 22]	135	8	200	610	6.3 -Log(Ki)	> 100000	2500
Ac-RR[dPhe(4-I)][d2Nal]-NH2 [Ac-Arg-Arg-(pI)DPhe-DNal(2′)-NH2]	220	280	500	57	6.4 -Log(Ki)	> 100000	440
Ac-[d2Nal]R[dPhe(4-I)][Tic]-NH2 [compound 24]	43	7	250	600	6.4 -Log(Ki)		
